The target in experiment [1] is T1, human complement factor Bb (human, UniProt P00751 260-764). The experiment can be described thus: cell-based or functional assay.
The target of experiment [2] is T1, human complement factor Bb. Briefly: cell-based or functional assay. This is another data set of the same source.
In experiment [3] the target is T1, human complement factor Bb. The experiment can be described thus: BLI (Octet), biotinylated target on streptavidin sensor; protein purified to >98%. From the text:
(§1) Bio-layer interferometry (BLI) was used to assess the recombinant proteins' target engagement to and binding affinity for complement C1s enzyme (active C1s or “C1s” herein) and factor Bb (Bb) (Complement Technology, Tyler, TX, USA). C1s and Bb were biotinylated with EZ-Link™ Sulfo-NHS-LC-LC-Biotin (Thermo Fisher, Waltham, MA, USA) according to manufacturer instructions. Biotinylated C1s or Bb was loaded on Octet® Streptavidin (SA) Biosensors (Sartorius, Göttingen, Germany), followed by a concentration range of purified proteins. To assess dual target engagement, biotinylated active C1s or Bb was loaded onto sensors, followed by purified proteins (“first association phase”), followed by the non-captured complement target (Bb or active C1s, non-biotinylated; “second association phase”). The assays were performed at 30° C. using PBS with 0.1% Tween 20 as a diluent (FIG. 3).

The target in experiment [4] is T1, human complement factor Bb. Briefly: BLI (Octet), biotinylated target on streptavidin sensor; mixture of the two scFabs from construct #9.
Source text: as §1

The target in experiment [5] is T1, human complement factor Bb. Briefly: cell-based or functional assay. This is another data set of the same source.
The target in experiment [6] is T1, human complement factor Bb. The experiment can be described thus: cell-based or functional assay. The source holds these as a separate data set.
The next experiment concerns the target T2, cynomolgus Bb (cynomolgus, UniProt A0A2K5TZY3 260-763).
T2 construct: Named only in the sentence that gives the KD; also called cynomolgus target
Briefly: method not given.

Experiment [7] deals with T1, human complement factor Bb. The experiment can be described thus: cell-based or functional assay. This is another data set of the same source.
Experiment [8] has as its target T1, human complement factor Bb. Briefly: BLI (Octet), biotinylated target on streptavidin sensor; partially purified mixture of the two scFabs from construct #9; mixture of the two scFabs from construct #9.
Source text: as §1
The third expression construct, construct #9 (FIGS. 2B and 21), is composed of a bidirectional minCBA promoter driving expression of separate transcripts encoding human codon-optimized αBb scFab or αC1s scFab [αC1s scFab+αBb scFab], each followed by a bGH poly (A) signal.

The target of experiment [9] is T1, human complement factor Bb. Briefly: cell-based or functional assay. The source holds these as a separate data set.
Experiment [10] addresses T1, human complement factor Bb. Briefly: BLI (Octet), biotinylated target on streptavidin sensor.
The target in experiment [11] is T1, human complement factor Bb. Briefly: SPR, purified protein.
The target in experiment [12] is T1, human complement factor Bb. The experiment can be described thus: BLI (Octet), biotinylated target on streptavidin sensor. The source holds these as a separate data set.

T1 sequence (P00751 260-764): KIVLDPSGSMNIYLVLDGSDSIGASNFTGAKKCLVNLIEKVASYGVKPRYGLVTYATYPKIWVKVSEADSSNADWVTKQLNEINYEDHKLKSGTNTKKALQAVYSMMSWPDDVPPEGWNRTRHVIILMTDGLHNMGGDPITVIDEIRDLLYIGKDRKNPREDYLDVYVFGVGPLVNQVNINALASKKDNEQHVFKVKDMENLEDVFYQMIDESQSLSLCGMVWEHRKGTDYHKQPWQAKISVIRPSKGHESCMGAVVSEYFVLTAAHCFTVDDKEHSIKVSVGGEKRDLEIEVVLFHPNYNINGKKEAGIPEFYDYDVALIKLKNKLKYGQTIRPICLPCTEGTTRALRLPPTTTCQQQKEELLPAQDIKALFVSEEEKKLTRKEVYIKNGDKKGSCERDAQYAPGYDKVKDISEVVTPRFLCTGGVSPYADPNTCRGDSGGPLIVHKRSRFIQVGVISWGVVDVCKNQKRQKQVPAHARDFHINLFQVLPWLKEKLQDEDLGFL
T2 sequence (A0A2K5TZY3 entry or part of it): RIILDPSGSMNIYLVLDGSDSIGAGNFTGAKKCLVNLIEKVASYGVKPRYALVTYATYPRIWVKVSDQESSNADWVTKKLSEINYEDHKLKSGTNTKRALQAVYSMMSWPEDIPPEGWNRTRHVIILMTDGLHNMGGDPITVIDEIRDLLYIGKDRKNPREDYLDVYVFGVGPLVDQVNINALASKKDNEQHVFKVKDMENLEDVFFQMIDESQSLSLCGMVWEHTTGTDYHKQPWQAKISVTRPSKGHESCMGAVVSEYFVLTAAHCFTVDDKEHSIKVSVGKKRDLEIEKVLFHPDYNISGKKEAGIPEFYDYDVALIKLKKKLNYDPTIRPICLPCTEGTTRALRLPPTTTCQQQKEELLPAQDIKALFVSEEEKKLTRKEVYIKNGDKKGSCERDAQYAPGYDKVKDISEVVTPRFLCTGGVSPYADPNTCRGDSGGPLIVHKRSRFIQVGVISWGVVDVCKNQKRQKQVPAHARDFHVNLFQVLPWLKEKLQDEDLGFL

B1: anti-Bb scFab (construct #4) (Fab)
chain: DIQMTQSPSTLSASVGDRVTITCKASQDVGTAVAWYQQKPGKAPKLLIYWASTRHTGVPDRFSGSGSGTDFTLTISSLQAEDFAVYFCHQHSSNPLTFGQGTKLEIKRTVAAPSVFIFPPSDEQLKSGTASVVCLLNNFYPREAKVQWKVDNALQSGNSQESVTEQDSKDSTYSLSSTLTLSKADYEKHKVYACEVTHQGLSSPVTKSFNRGECGGGGSGGGGSGGGGSGGGGSGGGGSGGGGSGGGGSEVQLVESGGGLVKPGGSLRLSCAASGFTFSNYAMSWVRQAPGKRLEWVATISNRGSYTYYPDSVKGRFTISRDNAKNSLYLQMNSLRAEDTALYYCARERPMDYWGQGTLVTVSSASTKGPSVFPLAPCSRSTSESTAALGCLVKDYFPEPVTVSWNSGALTSGVHTFPAVLQSSGLYSLSSVVTVPSSSLGTKTYTCNVDHKPSNTKVDKRV
notes: Single-chain Fab: LC-(G4S)7-HC (VH-CH1); there it stood in a mixture with the anti-C1s scFab; also called αBb scFab; Purified anti-Bb scFab
In the case of B1, the “IC50 (nM), complement activation with CP and AP activated simultaneously in vitro” value in [1] was determined as 633 nM. The “AP IC50 (Wieslab), mixture of scFabs from construct #9” value in experiment [2] came to 224 nM. Moreover, the Kd in experiment [3] came out at 0.7 nM; in experiment [4], 0.8 nM; with cynomolgus Bb, 14.8 nM; in experiment [8], 0.9 nM; in [10], 0.7 nM; in [11] it was 3.7 nM. For the same molecule, the koff in experiment [4] was 0.0002 s⁻¹; in [10], 0.00049 s⁻¹. Moreover, the kon in experiment [4] stood at 260000 M⁻¹ s⁻¹; in experiment [10], 670000 M⁻¹ s⁻¹. In [5], the “Wieslab AP IC50 of #9-derived fragments, fold of purified anti-Bb Fab” value was ~3 fold. Moreover, in experiment [6], the “Wieslab alternative pathway IC50” value amounted to 190 nM. For the same molecule, the “IC50 AP Wieslab EIA” value in experiment [7] worked out at 193 nM. The “IC50 AP (Wieslab)” value in experiment [9] is 193 nM. Besides, the “IC50 AP (Wieslab), mixture of scFabs from construct #9” value in experiment [9] turned out to be 224 nM.

B2: parental anti-Bb Fab (Fab, V domains shown)
VH: EVQLVESGGGLVKPGGSLRLSCAASGFTFSNYAMSWVRQAPGKRLEWVATISNRGSYTYYPDSVKGRFTISRDNAKNSLYLQMNSLRAEDTALYYCARERPMDYWGQGTLVTVSS
VL: DIQMTQSPSTLSASVGDRVTITCKASQDVGTAVAWYQQKPGKAPKLLIYWASTRHTGVPDRFSGSGSGTDFTLTISSLQAEDFAVYFCHQHSSNPLTFGQGTKLEIKR
notes: also called Purified anti-Bb Fab
Regarding B2, the “IC50 (nM), complement activation with CP and AP activated simultaneously in vitro” value in experiment [1] is 463 nM. Moreover, the “AP IC50 (Wieslab)” value in [2] was 99 nM. Besides, in experiment [6], the “Wieslab alternative pathway IC50” value came to 144 nM. Further, the Kd in experiment [12] was 0.7 nM; in [10], 0.73 nM; in [11], 2.7 nM. In [9], the “IC50 AP (Wieslab)” value came out at 144 nM. For the same molecule, the koff in experiment [10] stood at 0.00051 s⁻¹. Besides, the kon in [10] was 700000 M⁻¹ s⁻¹.

These data come from patent US20240401082A1 (Sanofi, published 2024).
